One molecule from patent EP2061494B1 (Universita' Degli Studi di Torino, dated 2012) can be followed below.

This assay deals with Src kinase (endogenous protein of MCF7 cells) (human, UniProt P12931 2-536). The assay is described as follows: cell-based or functional assay.

B1: p140Cap (endogenous protein of MCF7 human breast carcinoma cell extracts) (other, UniProt Q9C0H9 1-1183, looked up)
chain: MGNAPSQDPERSSPPMLSADDAEYPREYRTLGGGGGGGSGGRRFSNVGLVHTSERRHTVIAAQSLEALSGLQKADADRKRDAFMDHLKSKYPQHALALRGQQDRMREQPNYWSFKTRSSRHTQGAQPGLADQAAKLSYASAESLETMSEAELPLGFSRMNRFRQSLPLSRSASQTKLRSPGVLFLQFGEETRRVHITHEVSSLDTLHALIAHMFPQKLTMGMLKSPNTAILIKDEARNVFYELEDVRDIQDRSIIKIYRKEPLYAAFPGSHLTNGDLRREMVYASRESSPTRRLNNLSPAPHLASGSPPPGLPSGLPSGLQSGSPSRSRLSYAGGRPPSYAGSPVHHAAERLGGAPAAQGVSPSPSAILERRDVKPDEDLASKAGGMVLVKGEGLYADPYGLLHEGRLSLAAAAGDPFAYPGAGGLYKRGSVRSLSTYSAAALQSDLEDSLYKAAGGGGPLYGDGYGFRLPPSSPQKLADVAAPPGGPPPPHSPYSGPPSRGSPVRQSFRKDSGSSSVFAESPGGKTRSAGSASTAGAPPSELFPGPGERSLVGFGPPVPAKDTETRERMEAMEKQIASLTGLVQSALLRGSEPETPSEKIEGSNGAATPSAPCGSGGRSSGATPVSGPPPPSASSTPAGQPTAVSRLQMQLHLRGLQNSASDLRGQLQQLRKLQLQNQESVRALLKRTEAELSMRVSEAARRQEDPLQRQRTLVEEERLRYLNDEELITQQLNDLEKSVEKIQRDVSHNHRLVPGPELEEKALVLKQLGETLTELKAHFPGLQSKMRVVLRVEVEAVKFLKEEPQRLDGLLKRCRGVTDTLAQIRRQVDEGVWPPPNNLLSQSPKKVTAETDFNKSVDFEMPPPSPPLNLHELSGPAEGASLTPKGGNPTKGLDTPGKRSVDKAVSVEAAERDWEEKRAALTQYSAKDINRLLEETQAELLKAIPDLDCASKAHPGPAPTPDHKPPKAPHGQKAAPRTEPSGRRGSDELTVPRYRTEKPSKSPPPPPPRRSFPSSHGLTTTRTGEVVVTSKKDSAFIKKAESEELEVQKPQVKLRRAVSEVARPASTPPIMASAIKDEDDEDRIIAELESGGGSVPPMKVVTPGASRLKAAQGQAGSPDKSKHGKQRAEYMRIQAQQQATKPSKEMSGSNETSSPVSEKPSASRTSIPVLTSFGARNSSISF
Take B1: the “Src activity induced by adhesion to fibronectin (in vitro kinase assay) after shRNA down-regulation of p140Cap” value was 5 fold.
